Substrate in data set [1]: O=C1C[C@@H](c2ccccc2)Oc2cc(O)cc(O)c21
The data set can be described thus: initial rates of alpinetin formation by HPLC, Michaelis-Menten fit. The format is biochemical, Streptomyces avermitilis. Particulars: 2 mM SAM (fixed), 2 mM Mg2+, 50 uM enzyme, Tris-HCl pH 7.5, 37 °C, apparent initial velocities. The text has this: initial rates of alpinetin formation by HPLC, Michaelis-Menten fit on StrAOMT | we performed steady-state kinetic assays for StrAOMT wild-type and StrAOMT I41L/R171W/K212R

Substrate in data set [2]: O=C1C[C@@H](c2ccccc2)Oc2cc(O)cc(O)c21
The data set is described as above. It counts as biochemical, Streptomyces avermitilis. Particulars: 2 mM SAM (fixed), 2 mM Mg2+, 50 uM enzyme, Tris-HCl pH 7.5, 37 °C, apparent initial velocities. The text has this:
initial rates of alpinetin formation by HPLC, Michaelis-Menten fit on StrAOMT | KM of StrAOMT wild type is twice that of the StrAOMT triple mutant
The source holds these as a separate data set.

Where a chain is given by its changes, count along the chain named. Numbers in names are those of the source.

B1: StrAOMT (Streptomyces avermitilis MA-4680 = NBRC 14893) (protein)
chain: MSESQQLWDDVDDYFTTLLAPEDEALTAALRDSDAAGLPHINVAPNQGKLLQLLAEIQGARRILEIGTLGGYSTIWLGRALPRDGRLISFEYDAKHAEVARRNLARAGLDGISEVRVGPALESLPKLADERPEPFDLVFIDADKVNNPHYVEWALKLTRPGSLIVVDNVVRGGGVTDAGSTDPSVRGTRSALELIAEHPKLSGTAVQTVGSKGYDGFALARVLP
notes: recombinant from pET21b in E. coli BL21(DE3), codon-optimized
A word on the Km: it is the substrate concentration at which the rate is half of its maximum. What is called kcat is the maximal rate divided by the concentration of active sites. For B1, in data set [1], the Km is reported as 313.2 µM and the kcat was found to be 2.83e-05 s⁻¹.

B2: StrAOMT (Streptomyces avermitilis MA-4680 = NBRC 14893; I41L/K212R/R171W) (protein)
chain: B1 chain with I41L, R171W, K212R
notes: as for B1
B2: in data set [2], the Km was 156.4 µM and the kcat was determined as 9.33e-05 s⁻¹.

(Values after paper PMC13214397, “De novo biosynthesis of alpinetin enhanced by directed evolution of 5-O-methyltransferase” (Microbial Cell Factories, 2026).)
